tested on: Escherichia coli TOP10; assay: shrunken log2 fold change of peptide-encoding DNA abundance (4.5 h post-induction vs induction); higher = less antimicrobial activity (less host growth inhibition); conditions: time post-induction: 4.5 h; library: site-saturation at positions 5, 18, 19, 20
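Further: peptides expressed intracellularly from a pBAD plasmid library in pooled LB shake-flask culture, induced with 0.3% L-arabinose, DNA abundance read by NGS, three biological replicates, DESeq2 with apeglm shrinkage.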

Sequence	shrunken log2 fold change
RRIRVRPPRLPRPRPRPHTVPRP	-0.448
RRIRLRPPRLPRPRPRPVMSPRP	-0.152
RRIRYRPPRLPRPRPRPIRTPRP	-0.258
RRIRRRPPRLPRPRPRPTYDPRP	0.0415
RRIRIRPPRLPRPRPRPLRFPRP	-0.21
RRIRQRPPRLPRPRPRPSKRPRP	-0.188
RRIRGRPPRLPRPRPRPPPSPRP	1.22
RRIRCRPPRLPRPRPRPIDEPRP	-0.0366
RRIRFRPPRLPRPRPRPTFWPRP	-0.0559
RRIRNRPPRLPRPRPRPNMAPRP	-0.214
RRIRPRPPRLPRPRPRPTVDPRP	0.0336
RRIRNRPPRLPRPRPRPLRSPRP	0.119
RRIRRRPPRLPRPRPRPDCDPRP	0.222
RRIRERPPRLPRPRPRPFVAPRP	0.0108
RRIRHRPPRLPRPRPRPQSGPRP	0.165
RRIRNRPPRLPRPRPRPRGRPRP	0.316
RRIRGRPPRLPRPRPRPPCDPRP	0.734
RRIRQRPPRLPRPRPRPRYPPRP	-0.0427
RRIRPRPPRLPRPRPRPDYCPRP	-0.367
RRIRERPPRLPRPRPRPPRKPRP	0.387
RRIRMRPPRLPRPRPRPQTSPRP	0.339
RRIRMRPPRLPRPRPRPCNNPRP	0.0654
RRIRHRPPRLPRPRPRPVLIPRP	-0.113
RRIRDRPPRLPRPRPRPFRTPRP	-0.0508
RRIRKRPPRLPRPRPRPGAAPRP	1.54

Sequence	shrunken log2 fold change
RRIRVRPPRLPRPRPRPMNKPRP	-0.403
RRIRCRPPRLPRPRPRPNHVPRP	-0.248
RRIRNRPPRLPRPRPRPCTPPRP	-0.3
RRIRCRPPRLPRPRPRPCCVPRP	-0.409
RRIRCRPPRLPRPRPRPKIGPRP	0.0398
RRIRSRPPRLPRPRPRPNLVPRP	-0.0453
RRIRNRPPRLPRPRPRPDCTPRP	0.0531
RRIRIRPPRLPRPRPRPGYYPRP	-0.708
RRIRQRPPRLPRPRPRPGVHPRP	0.0118
RRIRVRPPRLPRPRPRPLMSPRP	0.0187
RRIRLRPPRLPRPRPRPIFCPRP	-0.314
RRIRRRPPRLPRPRPRPAKYPRP	0.0401
RRIRHRPPRLPRPRPRPARNPRP	0.093
RRIRIRPPRLPRPRPRPLQMPRP	-0.264
RRIRSRPPRLPRPRPRPYTEPRP	-0.186
RRIRWRPPRLPRPRPRPVTSPRP	0.112
RRIRRRPPRLPRPRPRPTKLPRP	0.111
RRIRYRPPRLPRPRPRPPCCPRP	-0.149
RRIRRRPPRLPRPRPRPEKMPRP	0.296
RRIRWRPPRLPRPRPRPDYCPRP	-0.0321
RRIRPRPPRLPRPRPRPCYVPRP	-0.469
RRIRCRPPRLPRPRPRPCCWPRP	0.103
RRIRLRPPRLPRPRPRPFQNPRP	-0.0252
RRIRPRPPRLPRPRPRPTLGPRP	0.564
RRIRHRPPRLPRPRPRPRMAPRP	0.0651

Sequence	shrunken log2 fold change
RRIRFRPPRLPRPRPRPWMKPRP	-0.0336
RRIRNRPPRLPRPRPRPQPIPRP	0.14
RRIRRRPPRLPRPRPRPGMLPRP	0.0899
RRIRIRPPRLPRPRPRPVNSPRP	-0.319
RRIRERPPRLPRPRPRPARTPRP	0.0417
RRIRYRPPRLPRPRPRPNRAPRP	-0.0548
RRIRHRPPRLPRPRPRPKPTPRP	0.0736
RRIRVRPPRLPRPRPRPMEYPRP	-0.0697
RRIRVRPPRLPRPRPRPWTVPRP	-0.782
RRIRIRPPRLPRPRPRPFSSPRP	-0.181
RRIRPRPPRLPRPRPRPFNDPRP	0.0502
RRIRCRPPRLPRPRPRPERKPRP	0.086
RRIRNRPPRLPRPRPRPIVMPRP	-0.0105
RRIRQRPPRLPRPRPRPEPNPRP	-0.0098
RRIRDRPPRLPRPRPRPEHKPRP	0.0114
RRIRIRPPRLPRPRPRPQQIPRP	-0.552
RRIRGRPPRLPRPRPRPHKIPRP	0.11
RRIRPRPPRLPRPRPRPRTCPRP	0.322
RRIRSRPPRLPRPRPRPRDHPRP	0.0497
RRIRWRPPRLPRPRPRPFQHPRP	0.0415
RRIRVRPPRLPRPRPRPNMYPRP	0.0145
RRIRTRPPRLPRPRPRPDQYPRP	-0.0122
RRIRMRPPRLPRPRPRPHTLPRP	-0.119
RRIRYRPPRLPRPRPRPERPPRP	0.232
RRIRPRPPRLPRPRPRPSHIPRP	-0.505

Sequence	shrunken log2 fold change
RRIRWRPPRLPRPRPRPPTTPRP	0.277
RRIRMRPPRLPRPRPRPCEVPRP	-0.181
RRIRWRPPRLPRPRPRPKVVPRP	0.352
RRIRERPPRLPRPRPRPSWWPRP	2.26
RRIRSRPPRLPRPRPRPEIRPRP	-0.0706
RRIRRRPPRLPRPRPRPRNYPRP	0.143
RRIRDRPPRLPRPRPRPILQPRP	-0.0838
RRIRTRPPRLPRPRPRPMGEPRP	-0.0305
RRIRSRPPRLPRPRPRPGSWPRP	0.605
RRIRSRPPRLPRPRPRPPRHPRP	0.219
RRIRRRPPRLPRPRPRPDPWPRP	0.335
RRIRQRPPRLPRPRPRPFTEPRP	-0.223
RRIRYRPPRLPRPRPRPHPPPRP	0.374
RRIRNRPPRLPRPRPRPMTGPRP	-0.149
RRIRKRPPRLPRPRPRPGLFPRP	0.556
RRIRDRPPRLPRPRPRPEIFPRP	-0.0297
RRIRLRPPRLPRPRPRPQRPPRP	0.265
RRIRDRPPRLPRPRPRPPHQPRP	-0.022
RRIRYRPPRLPRPRPRPVKAPRP	-0.0854
RRIRKRPPRLPRPRPRPEWIPRP	0.454
RRIRARPPRLPRPRPRPTSLPRP	0.225
RRIRRRPPRLPRPRPRPECCPRP	0.566
RRIRNRPPRLPRPRPRPTGLPRP	0.0817
RRIRNRPPRLPRPRPRPQRSPRP	0.0667
RRIRKRPPRLPRPRPRPWPRPRP	0.264

Sequence	shrunken log2 fold change
RRIRVRPPRLPRPRPRPIDHPRP	-0.152
RRIRNRPPRLPRPRPRPIINPRP	-0.265
RRIRDRPPRLPRPRPRPSKYPRP	-0.455
RRIRIRPPRLPRPRPRPKRQPRP	0.174
RRIRIRPPRLPRPRPRPWWIPRP	-0.0829
RRIRDRPPRLPRPRPRPKVCPRP	-0.0149
RRIRTRPPRLPRPRPRPQCPPRP	-0.125
RRIRPRPPRLPRPRPRPHRMPRP	-0.465
RRIRCRPPRLPRPRPRPYQEPRP	-0.276
RRIRIRPPRLPRPRPRPYVVPRP	-1.54
RRIRCRPPRLPRPRPRPFQMPRP	-0.423
RRIRARPPRLPRPRPRPILYPRP	-0.348
RRIRMRPPRLPRPRPRPIDMPRP	-0.0621
RRIRRRPPRLPRPRPRPGCPPRP	0.414
RRIRMRPPRLPRPRPRPKCQPRP	1.33
RRIRWRPPRLPRPRPRPHMPPRP	-0.768
RRIRCRPPRLPRPRPRPRRTPRP	0.54
RRIRMRPPRLPRPRPRPCSAPRP	1.24
RRIRYRPPRLPRPRPRPAYFPRP	-0.782
RRIRFRPPRLPRPRPRPNVRPRP	0.0987
RRIRGRPPRLPRPRPRPWIQPRP	0.0532
RRIRWRPPRLPRPRPRPLDDPRP	0.454
RRIRGRPPRLPRPRPRPTELPRP	0.261
RRIRWRPPRLPRPRPRPLGWPRP	2.31
RRIRFRPPRLPRPRPRPFTSPRP	-0.316

From the supplement of paper PMC9112550, “Optimization of the antimicrobial peptide Bac7 by deep mutational scanning” (BMC Biology, 2022)
